These results are taken from publication PMC8626477.

Test [1] has as its target E2 of the Chaetomium thermophilum pyruvate dehydrogenase complex (PDHc) (Chaetomium thermophilum). Put plainly: cryo-EM structure; native C. thermophilum cell extract, SEC fraction 6, vitrified at 0.3 mg/mL total protein; 10249 particles; reconstructions with icosahedral (3.85 Å), C2 (6.21 Å) and C1 (7.62 Å) symmetry.
Test [2] addresses E3BP of the Chaetomium thermophilum pyruvate dehydrogenase complex (PDHc) (Chaetomium thermophilum). Described as above.

The term stoichiometry N denotes a count of units in the complex or per binding partner. Regarding “E3BP of the Chaetomium thermophilum pyruvate dehydrogenase complex (PDHc) (natural protein)”, the stoichiometry N came to 12 in test [1] and 3 in test [2]. For “E2 of the Chaetomium thermophilum pyruvate dehydrogenase complex (PDHc) (enzyme)”, the stoichiometry N in test [1] is 60.
